The results in this text go back to patent US20230002493A1 (ORIONIS BIOSCIENCES, published 2023).

The target of test [1] is T1, recombinant PD-L1 extracellular domain fused to the mouse IgG1 Fc domain (SinoBiologicals) (human; mouse, UniProt Q9NZQ7 19-238).
T1 construct: extracellular domain; also called human PD-L1-mouse Fc; PD-L1-mouse Fc protein; not shown: mouse IgG1 Fc domain
Briefly: BLI (Octet), recombinant PD-L1-mouse Fc on the sensor, VHH dilution series. As for the experimental part:
(§1) Affinities of resulting variants were measured using the bio-layer interferometry technology on an Octet Red 96 instrument (ForteBio). In brief, recombinant PD-L1 extracellular domain fused to the mouse IgG1 Fc domain (SinoBiologicals) was immobilized on anti-murine IgG quantitation (AMQ) biosensors (ForteBio). Loaded sensors were incubated with a serial dilution of PD-L1 VHH variant, association and dissociation monitored and kinetic parameters were calculated using the Octet Data Analysis software v10 (ForteBio).
The isomerization motif in all these variants was removed by the D54G mutation. Variants were produced as described above and affinity measured on an Octet instrument using the recombinant PD-L1-mouse Fc protein.

Test [2] addresses T1, recombinant PD-L1 extracellular domain …. Briefly: BLI (Octet Red 96), PD-L1-mouse IgG1 Fc on AMQ biosensors, VHH dilution series. As for the experimental part:
as §1

For test [3] the target is unchanged. The test can be described thus: BLI (Octet Red 96); ratio of the printed KDs, 2LIG99 over variant. On the procedure: as §1
For test [4] the target is unchanged. The test can be described thus: BLI (Octet Red 96), PD-L1-mouse IgG1 Fc on AMQ biosensors, VHH dilution series. As for the experimental part: as §1
(§2) The aspartic acid at position 1 was included to avoid the risk of pyroglutamate formation. […] Resulting mutants were purified and affinities measured as described in Example 1.
The source holds these as a separate data set.

Test [5] has the same target. The test can be described thus: BLI (Octet), PD-L1-mouse Fc on the sensor, VHH dilution series, as described above. As for the experimental part: as §1
Test [6] has the same target. Briefly: BLI as in Example 1; reference not named, taken as parental 2LIG189. As for the experimental part:
as §1, §2

Test [7] shares this target. The test can be described thus: BLI (Octet Red 96); ratio of the printed KDs, variant over 2LIG189. As for the experimental part: as §1, §2

T1 sequence (Q9NZQ7 19-238): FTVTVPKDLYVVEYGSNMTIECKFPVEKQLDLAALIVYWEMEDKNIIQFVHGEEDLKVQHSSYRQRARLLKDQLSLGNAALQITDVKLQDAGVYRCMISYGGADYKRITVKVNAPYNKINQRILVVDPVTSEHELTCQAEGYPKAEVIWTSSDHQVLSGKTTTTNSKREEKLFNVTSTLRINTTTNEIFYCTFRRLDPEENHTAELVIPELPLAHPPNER

B1: 2LIG99 VHH (VHH)
VHH: QVQLQESGGGLVQAGGSLRLSCTASGTIFSINRMDWFRQAPGKQRELVALITSDGTPAYADSAKGRFTISRDNTKKTVSLQMNSLKPEDTAVYYCHVSSGVYNYWGQGTQVTVSS
notes: Parental PD-L1 VHH; stands here as the molecule on which the mutations are counted; also called wild-type 2LIG99; not shown: C-terminal His-tag
Consider B1, for which, in test [1], the Kd worked out at 719 pM, the koff worked out at 0.000721 s⁻¹ and the kon turned out to be 1e+06 M⁻¹ s⁻¹. In addition, in test [2], the Kd came to 282 pM, the koff stood at 0.000447 s⁻¹ and the kon was 1.58e+06 M⁻¹ s⁻¹.

B2: 2LIG99_G56R (VHH)
VHH: QVQLQESGGGLVQAGGSLRLSCTASGTIFSINRMDWFRQAPGKQRELVALITSDRTPAYADSAKGRFTISRDNTKKTVSLQMNSLKPEDTAVYYCHVSSGVYNYWGQGTQVTVSS
As for B2, the “Ratio KD” value in test [3] turned out to be 0.28. In addition, in test [2], the Kd came out at 1010 pM, the koff was 0.000761 s⁻¹ and the on-rate (kon) worked out at 753000 M⁻¹ s⁻¹.

B3: 2LIG99_OPT5 (VHH)
VHH: DVQLVESGGGLVQPGGSLRLSCTASGTIFSINRMDWFRQAPGKQRELVALITSDGTPAYADSAKGRFTISRDNSKKTVYLQMNSLRPEDTAVYYCHVSSGVYNYWGQGTLVTVSS
As to B3, the “Ratio KD” value in test [3] stood at 2.27. Moreover, in test [2], the Kd came out at 124 pM, the koff turned out to be 7.55e-05 s⁻¹ and the kon was 607000 M⁻¹ s⁻¹.

B4: 2LIG99_OPT4 (VHH)
VHH: DVQLVESGGGLVQPGGSLRLSCTASGTIFSINRMDWFRQAPGKQRELVALITSDGTPAYADSAKGRFTISRDNSKNTVSLQMNSLRPEDTAVYYCHVSSGVYNYWGQGTLVTVSS
On to B4, for which the “Ratio KD” value in test [3] came out at 0.62. For the same molecule, in test [2], the Kd worked out at 452 pM, the koff came to 0.000304 s⁻¹ and the kon was determined as 671000 M⁻¹ s⁻¹.

B5: 2LIG99_D55T (VHH)
VHH: QVQLQESGGGLVQAGGSLRLSCTASGTIFSINRMDWFRQAPGKQRELVALITSTGTPAYADSAKGRFTISRDNTKKTVSLQMNSLKPEDTAVYYCHVSSGVYNYWGQGTQVTVSS
Consider B5, for which, in test [3], the “Ratio KD” value came out at 0.19. Also, in test [2], the Kd was determined as 1480 pM, the koff is 0.000436 s⁻¹ and the kon was 295000 M⁻¹ s⁻¹.

B6: P-1664: 2LIG99_OPT6 (Q1D_Q5V_A14P_T23A_A63V_T74S_K76N_S79Y_K86R_Q110L) (VHH)
VHH: DVQLVESGGGLVQPGGSLRLSCAASGTIFSINRMDWFRQAPGKQRELVALITSDGTPAYADSVKGRFTISRDNSKNTVYLQMNSLRPEDTAVYYCHVSSGVYNYWGQGTLVTVSS
notes: not shown: C-terminal His-tag
Regarding B6, the “Ratio KD” value in test [3] was 0.03. In test [2], the Kd turned out to be 10300 pM, the koff worked out at 0.00124 s⁻¹ and the kon is 121000 M⁻¹ s⁻¹.

B7: 2LIG99_OPT1 (VHH)
VHH: DVQLVESGGGLVQPGGSLRLSCTASGTIFSINRMDWFRQAPGKQRELVALITSDGTPAYADSAKGRFTISRDNSKKTVSLQMNSLRPEDTAVYYCHVSSGVYNYWGQGTLVTVSS
Turning to B7, in test [3], the “Ratio KD” value worked out at 0.35. In test [2], the dissociation constant Kd is 794 pM, the koff was found to be 0.000704 s⁻¹ and the kon was 886000 M⁻¹ s⁻¹.

B8: 2LIG99_D55K (VHH)
VHH: QVQLQESGGGLVQAGGSLRLSCTASGTIFSINRMDWFRQAPGKQRELVALITSKGTPAYADSAKGRFTISRDNTKKTVSLQMNSLKPEDTAVYYCHVSSGVYNYWGQGTQVTVSS
For B8, the “Ratio KD” value in test [3] amounted to 0.61. Moreover, in test [2], the Kd amounted to 459 pM, the koff amounted to 0.0007 s⁻¹ and the kon amounted to 1.53e+06 M⁻¹ s⁻¹.

B9: P-1660: 2LIG99_OPT2 (Q1D_Q5V_A14P_T23A_T74S_K86R_Q110L) (VHH)
VHH: DVQLVESGGGLVQPGGSLRLSCAASGTIFSINRMDWFRQAPGKQRELVALITSDGTPAYADSAKGRFTISRDNSKKTVSLQMNSLRPEDTAVYYCHVSSGVYNYWGQGTLVTVSS
notes: not shown: C-terminal His-tag
On to B9, for which, in test [3], the “Ratio KD” value was determined as 0.19. In addition, in test [2], the Kd was 1480 pM, the koff was found to be 0.000658 s⁻¹ and the kon was 445000 M⁻¹ s⁻¹.

B10: 2LIG189 VHH (VHH, not shown: small tags and cut ends)
VHH: QVQLQESGGGLVQAGGSLRLSCAASGKIFSGNDMGWYRQAPGKQRELVGIITSGGITDYADAVKGRFTISRDNAKNMMYLQMNSLKPEDTAVYYCNMRDRTIWWGQGTQVTVSS
notes: Parental PD-L1 VHH; stands here as the molecule on which the mutations are counted; also called wild-type 2LIG189
B10: in test [4], the Kd was 791 pM, the koff stood at 0.000148 s⁻¹ and the kon is 187000 M⁻¹ s⁻¹. In test [5], the Kd was 5410 pM, the koff came to 0.00131 s⁻¹ and the kon worked out at 243000 M⁻¹ s⁻¹.

B11: SEQ ID NO: 73 (2LIG189 humanization variant with deamidation and oxidation risk sites removed) (VHH)
VHH: DVQLVESGGGLVQPGGSLRLSCAASGKIFSGNHMGWYRQAPGKQRELVGIITSGGITDYADAVKGRFTISRDNSKNTVYLQMNSLRPEDTAVYYCNIRDRTIWWGQGTLVTVSS
notes: also called 2LIG189 second wave variant
As to B11, in test [5], the Kd is 555 pM, the koff turned out to be 0.000329 s⁻¹ and the kon came to 593000 M⁻¹ s⁻¹.

B12: 2LIG189_OPT_N32R_M97V (VHH)
VHH: DVQLVESGGGLVQPGGSLRLSCAASGKIFSGRDMGWYRQAPGKQRELVGIITSGGITDYADAVKGRFTISRDNSKNTVYLQMNSLRPEDTAVYYCNVRDRTIWWGQGTLVTVSS
For the molecule B12, in test [5], the Kd came out at 3380 pM, the koff came out at 0.00056 s⁻¹ and the kon was 166000 M⁻¹ s⁻¹.

B13: 2LIG189_OPT_N32R_M97I (VHH)
VHH: DVQLVESGGGLVQPGGSLRLSCAASGKIFSGRDMGWYRQAPGKQRELVGIITSGGITDYADAVKGRFTISRDNSKNTVYLQMNSLRPEDTAVYYCNIRDRTIWWGQGTLVTVSS
In the case of B13, in test [5], the Kd was determined as 2320 pM, the koff worked out at 0.000457 s⁻¹ and the on-rate constant (kon) stood at 197000 M⁻¹ s⁻¹.

B14: 2LIG189 variant M97L (VHH, not shown: small tags and cut ends)
VHH: QVQLQESGGGLVQAGGSLRLSCAASGKIFSGNDMGWYRQAPGKQRELVGIITSGGITDYADAVKGRFTISRDNAKNMMYLQMNSLKPEDTAVYYCNLRDRTIWWGQGTQVTVSS
For the molecule B14, in test [6], the “fold increase in affinity” value was at least 2 fold. Further, the “Ratio KD” value in test [7] was 0.01. For the same molecule, in test [4], the Kd came to 11.5 pM, the koff was 4.88e-07 s⁻¹ and the kon came out at 42500 M⁻¹ s⁻¹.

B15: 2LIG189 variant N32R (VHH, not shown: small tags and cut ends)
VHH: QVQLQESGGGLVQAGGSLRLSCAASGKIFSGRDMGWYRQAPGKQRELVGIITSGGITDYADAVKGRFTISRDNAKNMMYLQMNSLKPEDTAVYYCNMRDRTIWWGQGTQVTVSS
As for B15, the “fold increase in affinity” value in test [6] was at least 2 fold. Further, in test [4], the Kd was below 1 pM, the koff is below 1e-07 s⁻¹ and the kon stood at 351000 M⁻¹ s⁻¹.

B16: 2LIG189_OPT_N32R (VHH)
VHH: DVQLVESGGGLVQPGGSLRLSCAASGKIFSGRDMGWYRQAPGKQRELVGIITSGGITDYADAVKGRFTISRDNSKNTVYLQMNSLRPEDTAVYYCNMRDRTIWWGQGTLVTVSS
For B16, in test [5], the Kd is 1940 pM, the koff came to 0.000731 s⁻¹ and the kon was 377000 M⁻¹ s⁻¹.

B17: 2LIG189 variant M97I (VHH, not shown: small tags and cut ends)
VHH: QVQLQESGGGLVQAGGSLRLSCAASGKIFSGNDMGWYRQAPGKQRELVGIITSGGITDYADAVKGRFTISRDNAKNMMYLQMNSLKPEDTAVYYCNIRDRTIWWGQGTQVTVSS
notes: also called M971 (so in the source)
B17: in test [6], the “fold increase in affinity” value was at least 2 fold. For the same molecule, the “Ratio KD” value in test [7] turned out to be 0.01. Besides, in test [4], the Kd stood at 7.41 pM, the koff stood at 3.45e-07 s⁻¹ and the kon worked out at 46500 M⁻¹ s⁻¹.

B18: 2LIG189 variant D33H (VHH, not shown: small tags and cut ends)
VHH: QVQLQESGGGLVQAGGSLRLSCAASGKIFSGNHMGWYRQAPGKQRELVGIITSGGITDYADAVKGRFTISRDNAKNMMYLQMNSLKPEDTAVYYCNMRDRTIWWGQGTQVTVSS
B18: in test [6], the “fold increase in affinity” value is at least 2 fold. Further, the “Ratio KD” value in test [7] was 0.47. In test [4], the Kd came to 372 pM, the koff turned out to be 0.000157 s⁻¹ and the association rate constant (kon) is 421000 M⁻¹ s⁻¹.

B19: 2LIG189_OPT_D33H (VHH)
VHH: DVQLVESGGGLVQPGGSLRLSCAASGKIFSGNHMGWYRQAPGKQRELVGIITSGGITDYADAVKGRFTISRDNSKNTVYLQMNSLRPEDTAVYYCNMRDRTIWWGQGTLVTVSS
For B19, in test [5], the Kd is 324 pM, the koff was 0.000145 s⁻¹ and the kon is 446000 M⁻¹ s⁻¹.
